Our source for the Kd values is doi:10.1101/718155 (2019).

The labels stand for the following.
B1: S100B (natural protein)
chain: MSELEKAMVALIDVFHQYSGREGDKHKLKKSELKELINNELSHFLEEIKEQEVVDKVMETLDNDGDGECDFQEFMAFVAMVTTACHEFFEHE

In experiment [1] the target is B1. Description: FP; direct.
The target in experiment [2] is S100A1. Description: FP; direct.
Experiment [3] deals with S100A5. Description: FP; direct.
Experiment [4] deals with S100A2. The experiment is described as follows: FP; direct.
In experiment [5] the target is B1. The experiment is described as follows: ITC; 310 K.
Experiment [6] addresses B1. The experiment is described as follows: FP; competitive.
Experiment [7] deals with S100A1. Description: FP; competitive.
Experiment [8] has as its target S100A5. Description: FP; competitive.
In experiment [9] the target is S100A2. Description: FP; competitive.
Experiment [10] deals with B1. Description: ITC; 310 K; second site.
Experiment [11] deals with B1. Description: ITC; 298 K.
The target in experiment [12] is S100A5. The experiment is described as follows: ITC; 310 K.
Another experiment addresses S100A9. The experiment is described as follows: FP; direct.
Experiment [13] addresses S100A3. Description: FP; direct.
Experiment [14] has as its target S100P. Description: FP; direct.
The target of experiment [15] is S100A8. The experiment is described as follows: FP; direct.
Experiment [16] concerns the target S100A6. The experiment is described as follows: FP; direct.
For the next experiment, the target named is S100A14. Description: FP; direct.
Experiment [17] addresses S100A4. The experiment is described as follows: FP; direct.
Experiment [18] concerns the target S100A11. Description: FP; direct.
Experiment [19] deals with S100A10. The experiment is described as follows: FP; direct.
Experiment [20] has as its target S100A3. Description: FP; competitive.
For experiment [21], the target named is S100A8. The experiment is described as follows: FP; competitive.
In experiment [22] the target is S100A6. The experiment is described as follows: FP; competitive.
For experiment [23], the target named is S100A4. Description: FP; competitive.
Experiment [24] deals with S100A11. The experiment is described as follows: FP; competitive.
The target in experiment [25] is S100A10. The experiment is described as follows: FP; competitive.
The target in experiment [26] is S100A1. The experiment is described as follows: ITC; 298 K. For orientation: ITC needs no label: the signal is the heat of the interaction.
The target in another experiment is S100A15. Description: FP; direct.
A further experiment addresses S100G. Description: FP; direct.
The target in a further experiment is S100A7. Description: FP; direct.
For experiment [27], the target named is S100P. The experiment is described as follows: FP; competitive.
The target of the next experiment is MK2. The experiment is described as follows: FP; competitive.
Another experiment addresses RSK1-CTKD. The experiment is described as follows: FP; competitive.
A further experiment concerns the target FOR20. Description: FP; competitive.
The target of experiment [28] is S100A1. Description: ITC; 310 K.
The next experiment deals with S100A12. The experiment is described as follows: FP; direct.
A further experiment addresses S100A13. The experiment is described as follows: FP; direct.
Another experiment has as its target S100Z. Description: FP; direct.
In experiment [29] the target is S100A6. The experiment is described as follows: ITC; 310 K.

The Kd is the concentration at which binding is half-saturated. Turning to NQVRPKLPLLKILHAAGAQ [MDM4 (25-43) peptide], the Kd with S100B [1] was determined as 0.2 µM; with S100A1 [2], 91 µM; in the experiment with S100A5 [3], 61 µM; with S100A2 [4] it was 49 µM; with S100B [5], 0.71 µM; with S100B [6], 0.15 µM. Further, the Kd came out at 35 µM in the experiment with S100A1 [7], 65 µM with S100A5 [8], 53 µM with S100A2 [9] and 0.63 µM with S100B [10].
In the experiment with S100B [11], GAMAATYSALNSSKPTPQLKPIESSILAQRRVRKLPSTTL [RSK1 (696-735) peptide] registered a Kd of 12 µM.
For VLQTWLQDLLRRGLVRAAQ [TRPM4 (129-147) peptide], the Kd with S100B [1] turned out to be 16 µM; with S100A5 [12], 1.4 µM; with S100A9 it was 21 µM; in the experiment with S100A3 [13] it was 0.91 µM; with S100P [14] it was 0.93 µM; in the experiment with S100A8 [15], 3.8 µM. Further, the Kd with S100A6 [16] was determined as 1.4 µM; in the experiment with S100A1 [2] it was 0.38 µM; in the experiment with S100A5 [3] it was 0.6 µM; in the experiment with S100A14, 12 µM; in the experiment with S100A2 [4], 1 µM; with S100A4 [17], 5.9 µM. In addition, the Kd with S100A11 [18] was 2.4 µM; with S100A10 [19], 17 µM; with S100B [6], greater than 200 µM; in the experiment with S100A3 [20] it was 3.4 µM; with S100A8 [21], 13 µM; with S100A6 [22], 8.4 µM. For the same molecule, the Kd in the experiment with S100A5 [8] turned out to be 2.3 µM; in the experiment with S100A2 [9], 1.1 µM; in the experiment with S100A4 [23] it was 35 µM; with S100A11 [24], 106 µM; with S100A10 [25], 125 µM.
As for RKLQRELEDATETADAMNREVSSLKNKLRRGDLPFVVPRRMARK [NMIIA (1894-1937) peptide], the Kd with S100B [1] was found to be 4.7 µM; with S100A1 [26] it was 0.009 µM; with S100A3 [13], 5.5 µM; in the experiment with S100P [14], 0.99 µM; with S100A15, 17 µM; in the experiment with S100A6 [16], 0.58 µM. Moreover, the Kd in the experiment with S100A1 [2] was 0.033 µM; with S100A5 [3], 5.8 µM; in the experiment with S100A14, 98 µM; in the experiment with S100G it was 21 µM; with S100A2 [4], 0.057 µM; in the experiment with S100A4 [17], 0.026 µM. Moreover, the Kd came out at 49 µM with S100A11 [18]; 13.1 µM with S100A7; 2.9 µM with S100B [6]; 0.14 µM with S100P [27]; 0.21 µM with S100A6 [22]; 0.004 µM with S100A1 [7]. Besides, the Kd in the experiment with S100A5 [8] is 2.9 µM; in the experiment with S100A2 [9] it was 0.013 µM; with S100A4 [23], 0.0088 µM.
In the case of B1, the Kd with MK2 was determined as 3.2 µM; in the experiment with RSK1-CTKD it was 1.2 µM; with FOR20, 0.25 µM.
As to TRTKIDWNKILS [CapZ (265-276) peptide], the Kd in the experiment with S100B [1] amounted to 2.3 µM; in the experiment with S100P [14], 11 µM; in the experiment with S100A1 [2], 8.9 µM; with S100A5 [3] it was 4.7 µM; with S100B [5], 3.9 µM; with S100B [6], 1.8 µM. Besides, the Kd with S100P [27] stood at 4.1 µM; in the experiment with S100A1 [7], 5.2 µM; in the experiment with S100A5 [8], 5.4 µM; with S100B [10] it was 0.94 µM.
As for RRLLFYKYVYKR [NCX1 (254-265) peptide], the Kd with S100B [1] amounted to 7.7 µM; with S100A1 [28] it was 6.4 µM; in the experiment with S100A9 it was 20 µM; with S100A3 [13], 25 µM; with S100P [14], 4 µM; with S100A8 [15] it was 56 µM. The Kd in the experiment with S100A12 is 170 µM; with S100A15, 28 µM; in the experiment with S100A6 [16] it was 27 µM; with S100A1 [2] it was 2.6 µM; in the experiment with S100A5 [3] it was 4.6 µM; with S100A14, 71 µM. Further, the Kd amounted to 24 µM with S100G; 87 µM with S100A13; 5.5 µM in the experiment with S100A2 [4]; 15 µM with S100A4 [17]; 11 µM with S100Z; 52 µM with S100A11 [18]. For the same molecule, the Kd is 30 µM in the experiment with S100A7; 53 µM in the experiment with S100A10 [19]; greater than 200 µM with S100B [6]; 2.6 µM in the experiment with S100A1 [7]; 5.2 µM with S100A5 [8].
Consider SEGLMNVLKKIYEDG [SIP (188-202) peptide], for which the Kd in the experiment with S100B [1] was greater than 200 µM; with S100A5 [12], 21 µM; with S100P [14] it was 38 µM; with S100A6 [16], 8.7 µM; with S100A5 [3] it was 42 µM; with S100A2 [4], 102 µM. Besides, the dissociation constant (Kd) with S100A4 [17] came to 42 µM; with S100A6 [22], 20 µM; with S100A5 [8], 40 µM; with S100A4 [23] it was 11 µM.
MAATAAAVVAEEDTELRDLLVQTLENSGVLNRIKAELRAAVFLALEEQ [FOP (1-48) peptide]: the Kd in the experiment with S100A6 [29] was found to be 0.088 µM; with S100B [6] it was 1.2 µM; with S100A3 [20] it was 0.27 µM; with S100P [27], 0.066 µM; with S100A6 [22], 0.0056 µM; with S100A1 [7] it was 0.35 µM. For the same molecule, the Kd was 0.56 µM in the experiment with S100A5 [8], 0.081 µM with S100A2 [9] and 0.048 µM with S100A4 [23].
